Measurements: paper PMC2887905

What was measured:
[1] = target: Recombinant HIV-1 gp120 (LAV, CXCR4 monotropic, identical to NL4-3 gp120, glycosylated) (HIV-1 (LAV; identical to NL4-3 gp120)) (UniProt P03377)
[2] = target: gp41 (ARP671, spanning the entire extracellular domain of HIV-1 gp41MN) (HIV-1 (MN)) (UniProt P05877); assay: SPR; gp41 immobilised on a biosensor; data not shown
Chain of UniProt P05877 (P05877 32-685): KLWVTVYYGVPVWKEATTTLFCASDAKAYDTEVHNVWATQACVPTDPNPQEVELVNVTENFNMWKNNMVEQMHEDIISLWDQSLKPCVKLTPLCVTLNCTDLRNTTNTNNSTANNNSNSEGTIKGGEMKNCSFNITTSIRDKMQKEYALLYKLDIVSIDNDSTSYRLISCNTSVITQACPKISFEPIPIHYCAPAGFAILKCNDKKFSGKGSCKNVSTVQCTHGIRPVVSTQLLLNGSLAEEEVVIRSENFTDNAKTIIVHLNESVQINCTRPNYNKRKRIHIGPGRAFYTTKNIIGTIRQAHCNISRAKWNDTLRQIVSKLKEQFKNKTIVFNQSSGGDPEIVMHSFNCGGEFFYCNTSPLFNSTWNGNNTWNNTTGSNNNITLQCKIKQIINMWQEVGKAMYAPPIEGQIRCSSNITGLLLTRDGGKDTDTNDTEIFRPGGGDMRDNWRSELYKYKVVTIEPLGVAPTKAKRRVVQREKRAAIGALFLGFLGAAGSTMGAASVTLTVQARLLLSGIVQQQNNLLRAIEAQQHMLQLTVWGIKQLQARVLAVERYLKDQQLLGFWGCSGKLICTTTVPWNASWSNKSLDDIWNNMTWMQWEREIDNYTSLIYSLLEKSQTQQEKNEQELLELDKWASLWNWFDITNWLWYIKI

| Substance | neutralisation of HIV-1 NL4-3 infection, p24 antigen ELISA on day 5, dose-dependent, value at 20 μg/ml [1] [%] | response units [2] [RU] | neutralisation of HIV-1 NL4-3 infection, p24 antigen ELISA on day 5, value at 50 μg/ml [1] [%] |
| --- | --- | --- | --- |
| HOCl-modified bovine serum albumin (protein:HOCl molar ratio 1:1000) (from UniProt P02769 25-607) | > 90 | < 5 | – |
| HOCl-modified human serum albumin (protein:HOCl molar ratio 1:1000) (from UniProt P02768 25-609) | > 95 | < 5 | – |
| HOCl-modified mouse serum albumin (protein:HOCl molar ratio 1:1000) (from UniProt P07724 25-608) | – | < 5 | > 90 |
